In patent US20210317499A1:

Target: His-tagged FcγRIIIa recombinant protein (UniProt P08637)
Test: SPR (Biacore X100); His-tagged FcγRIIIa captured on anti-His antibody CM5 chip, antibody as analyte; 1:1 Langmuir fit

Sequence of UniProt P08637 (P08637 17-208 limits assumed): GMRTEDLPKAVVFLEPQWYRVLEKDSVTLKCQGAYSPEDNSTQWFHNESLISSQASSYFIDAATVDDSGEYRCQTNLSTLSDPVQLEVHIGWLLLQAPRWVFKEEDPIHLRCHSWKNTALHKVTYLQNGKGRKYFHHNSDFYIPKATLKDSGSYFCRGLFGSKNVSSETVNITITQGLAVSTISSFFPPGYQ

Kd: 39.9 nM
koff: 0.0069 s⁻¹
kon: 173000 M⁻¹ s⁻¹
Substance: GAZYVA (obinutuzumab), commercial afucosylated anti-CD20 antibody
